Patent US20100322948A1, “Bone morphogenetic protein (BMP)-binding domains of proteins of the repulsive guidance molecule (RGM) protein family and functional fragments thereof, and use of same” (ABBOTT GMBH & CO. KG, priority 2007, published 2010)
Ends that are not written are not given here.

T1: BMP-4 (Homo sapiens, UniProt P12644)
T1 construct: purchased R&D Systems 314-BM
T1 sequence (P12644 293-408): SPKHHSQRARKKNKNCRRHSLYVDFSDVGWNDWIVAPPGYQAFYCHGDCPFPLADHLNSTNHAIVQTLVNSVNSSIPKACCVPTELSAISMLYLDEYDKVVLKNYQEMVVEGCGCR

T2: Recombinant human BMP-4 (human, UniProt P12644 293-408)
T2 construct: Bought protein; also called hBMP-4
T2 sequence (looked up): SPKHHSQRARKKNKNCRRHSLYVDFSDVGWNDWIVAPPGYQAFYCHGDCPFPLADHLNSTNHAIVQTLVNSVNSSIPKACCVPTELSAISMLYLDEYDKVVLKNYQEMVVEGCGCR


What was measured:
[1] = test system: BMP signalling (rhBMP-2-induced luciferase activity); assay: BRE-Luc assay on BMP signalling in BMP-responsive C3H10-B12 cells; assay type: cell-based; settings: combined with rhBMP-2 at 50 ng/ml, 24 h
Protocol: Evaluation of the Agonistic or Antagonistic Effect of h RMG A on BMP Signalling using BRE-Luc Assay
a) Materials: • Three compounds were provided at 200 μg/ml.
fragment #788 (IgK/hRGM A 47-422/Xa cleavage site/Fc) • recombinant h BMP-2 (from CHO cells; #355-BM) and monoclonal anti-human BMP2/4 antibodies (#MAB3552) were obtained from R&D Systems Europe, Lille, France • Bright-Glo Luciferase assay kit were purchased from Promega
All experiments were performed in triplicate, and were repeated at two separate times.

[2] = target: T1, BMP-4; assay: In vitro interaction test, variant A: immobilized BMP-4, detection of binding of RGMA-Fc fusion proteins; settings: Working Example 3, FIG. 5; detection anti-human-Fc or anti-Myc
Protocol: Test Method 4: In Vitro Interaction Test for Determining the Interaction between RGMA and BMP-2 and -4
The interaction tests were carried out as described below:
Variant A: Immobilization of the BMP-2/ or -4 Protein and Detection of the Binding of Various RGMA-Fc Fusion Proteins
1. Plate: • Immunoplate Cert. MaxiSorp F96 (Nunc, 439454)
Recombinant human BMP-2, Catalog No.: 355-BM, Company: R&D Systems; Recombinant human RGM A, R&D Systems; Prod. #2495-RM, or
Recombinant human BMP-4, Catalog No.: 314-BM, Company: R&D Systems; • Concentration: 10 μg/mL • Volume used: 2.5 μg/mL in Na2CO3; addition: 50 μL per well • 1 hour at 37° C. in damp chamber
3. Washing step: • Wash 3× with PBS/[…] Tween 20
4. Blocking: • 3% BSA in PBS/0.02% Tween, 1 hour at 37° C. in damp chamber; addition: 200 μL per well
RGMA-Fc fragments, • 1 μg/mL initial concentration, then dilution down to 1:2 using PBS/0.02% Tween20 • […] • 1 hour at 37° C. in damp chamber
6. Washing step: • Wash 3× with PBS/0.02% Tween 20
Biotin anti-human Fc (R&D-Systems), Catalog No.: 709065; 1 mg/mL; • 1:200 in 0.6% BAS/PBS-T (0.02% Tween) • Addition: 50 μL per well • 1 hour at 37° C. in damp chamber
8. Secondary antibody: Strep. POD (Roche); Catalog No.: 11089153001 • 500 U; 1:5000 in 0.6% BAS/PBS-T (0.02% Tween) • Addition: 50 μL per well • 1 hour at 37° C. in damp chamber
9. Washing step: • Wash 3× with PBS/0.02% Tween 20
ImmunoPure TMB substrate kit; Pierce, #34021 • Development period: approximately 1-30 minutes • 1:1 mixture of […]; addition: 50 μL per well
11. Stop: • 2.5 M H2SO4; addition: 50 μL per well
The test was conducted according to test method 4, variant A above, with immobilization of BMP-4 (1 mg/mL). The binding of the fusion proteins was detected using anti-human-Fc or anti-Myc anti-rabbit (Invitrogen) antibodies.
The test was conducted according to test method 4, variant A above, with immobilization of BMP-4 (1 mg/mL). The binding of the fusion proteins was detected using anti-human-antibodies.

[3] = target: T2, Recombinant human BMP-4; assay: ELISA, BMP-4 immobilised, fragment titrated, detection with anti-human Fc antibody
Description: The binding of the fusion proteins was detected using anti-human-antibodies.

[4] = test system: SH-SY5Y cells; assay: Neurite growth assay using SH-SY5Y cells (test method 1); assay type: cell-based, human; settings: FIG. 7A
Description: Test Method 1: Illustration of the Effect of RGM Peptides in the Neurite Growth Assay, Using SH-SY5Y Cells
SH-SY5Y cells are human neuroblastoma cells. Blastomas are embryonic tumors which originate during tissue and organ formation. The origin of the blastoma cells is frequently unknown, since in early embryonic states the differentiation of many cells is still premature; i.e., the blastoma cells are a heterogeneous cell population. The cells of a neuroblastoma, referred to as neuroblasts, originate from the neural crest (structure of the embryonic state) from the autonomous nerve tissue, and are practically arrested in an immature stage. The cells in the present case originated from a clonal subculture of the neuroepitheliomal cell line SK-N-SH which were isolated in 1970 in a bone marrow biopsy of a child with metastases of the neuroblastomas.
Culture Medium for SH-SY5Y Cells (ECACC No. 94030304)
The medium was sterile-filtered using a Nunc 500-mL filter, and was stored in a refrigerator at 4° C. until used. Before use, the medium was heated to 37° C. in a water bath.
SH-SY5Y cells are epithelial, neuron-like cells which slowly adherently grow in a monolayer and never attain a confluence of 100% (maximum 80%). The cell culture was split 1:3 two times per week. Isolation of the cells requires incubation with trypsin for 1-3 minutes in an incubator.
Since this is a population of still immature precursor cells, it is possible to differentiate the cells using retinoic acid, so that a certain percentage of the cells acquire neurite-like extensions. For this purpose the culture was incubated in the medium with 10 μM retinoic acid directly in the culture dish or flask, depending on the test, for 3 days.
Microtiter plates (96-well) (containing collagen I-coated plates) were additionally coated with the hRGM A fragments. After washing two times with PBS the cells were seeded. […] In the quantitative analysis the SH-SY5Y cells grown on hRGM A fragments were compared to SH-SY5Y grown on collagen I alone. The neurite length of the cells was automatically measured and used for the analysis. […]

[5] = test system: NTera-2 cells; assay: Neurite growth test using NTera-2 cells (test method 2); assay type: cell-based, human; settings: FIG. 7B
Description: Test Method 2: Illustration of the Effect of RGM Peptides in the Neurite Growth Test, Using NTera-2 Cells
The human pluripotent cancer cell line NTera2 (DSMZ ACC527) is established as a cell culture model. Neurites grow from cell aggregates and form a corona of neurites around the particular aggregate.
NTera-2 cells are human embryonic teratocarcinoma cells. A carcinoma is a cancerous tumor, whereas a teratoma or teratocarcinoma is a mixed tumor of the germ cells composed of various differentiated and undifferentiated tissues, and therefore, the same as for the SH-SY5Y culture, comprises a heterogeneous population. The tumor is usually present in an encapsulated form in the various types, such as hair, skin, teeth, muscle, and nerve tissue. The tumors typically originate in the ovaries, testes, abdominal cavity, or brain. The cell line was cloned from the Tera-2 line, obtained from a metastatic teratocarcinoma in a person.
NTera-2 cells are epithelial, adherently growing cells which form a monolayer. Due to the large number of granular particles which they contain, NTera-2 cells may be easily differentiated from the other cells. The cells were cultivated by 1:5 splitting twice a week. The cells of this mixed culture may be differentiated using retinoic acid in neuronal cells.
Culture Medium Fur Growth […]
In order to differentiate the cells it was necessary to introduce antibiotic into the culture medium of the cell line due to the fact that the cells remained in the same culture flask for three weeks. Previously, the undifferentiated culture had been detrypsinated and the cell count determined using a Neubauer counting chamber. […] 25 μL retinoic acid (10 μM) was readded to the medium under dim light conditions. […]
The culture was stored in an incubator at 37° C. with 5% CO2 gassing, and the medium was changed at the beginning and at the end of the week. […] After three weeks the cells were differentiated and were ready for use in experiments. […]
Different plate formats were used for the tests. For the isolation of protein, 6-well plates were necessary for recovering a sufficient quantity. […]

binding result [3] | Molecule | effect on BMP-2-induced luciferase activity [1] | binding to immobilized BMP-4 [2] | inhibition of neurite growth [4] | inhibition of neurite growth [5]
– | fragment #785: Fc fusion protein of human RGM A amino acids 47-90 (PCKILKCNSEFWSATSGSHAPASDDTPEFCAALRSYALCTRRTA; cysteine pairing not given here; also: Fc fusion protein (dimerising Fc)) | did not significantly modify | Significant concentration-dependent binding | – | –
binds | 316-386-Fc (#790) (Fc fusion, also called fragment #790; not shown: Factor Xa site from the vector; human IgG Fc (hIgG lambda hc 257-Stop)) LRGCPLNQQIDFQAFHTNAEGTGARRLAAASPAPTAPETFPYETAVAKCKEKLPVEDLYYQACVFDLLTTG | – | – | – | –
– | fragment #790: Fc fusion protein of human RGM A amino acids 316-386 (protein, left off: small tags and cut ends; a dimerising Fc or GST) LRGCPLNQQIDFQAFHTNAEGTGARRLAAASPAPTAPETFPYETAVAKCKEKLPVEDLYYQACVFDLLTTG | – | Significant concentration-dependent binding | inhibit the neurite growth | inhibit the neurite growth
binds | PCKILKCNSEFWSATSGSHAPASDDTPEFCAALRSYALCTRRTA (Fc fusion, Expressed in HEK293F cells; IgK leader left out; also called fragment 47-90; not shown: Factor Xa site from the vector; human IgG Fc (hIgG lambda hc 257-Stop)) [47-90-Fc (#785)] | – | – | – | –
